The assay has as its target PvdJ-eGFP (Pseudomonas aeruginosa PAO1). The experiment in a line: FRET or BRET.

In article doi:10.1101/438713 one finds shortening of the donor fluorescence lifetime against PvdJ-eGFP alone data, which are given here for one molecule.

B1: PvdA-mCherry (enzyme)
chain: MTQATATAVVHDLIGVGFGPSNIALAIALQERAQAQGALEVLFLDKQGDYRWHGNTLVSQSELQISFLKDLVSLRNPTSPYSFVNYLHKHDRLVDFINLGTFYPCRMEFNDYLRWVASHFQEQSRYGEEVLRIEPMLSAGQVEALRVISRNADGEELVRTTRALVVSPGGTPRIPQVFRALKGDGRVFHHSQYLEHMAKQPCSSGKPMKIAIIGGGQSAAEAFIDLNDSYPSVQADMILRASALKPADDSPFVNEVFAPKFTDLIYSREHAERERLLREYHNTNYSVVDTDLIERIYGVFYRQKVSGIPRHAFRCMTTVERATATAQGIELALRDAGSGELSVETYDAVILATGYERQLHRQLLEPLAEYLGDHEIGRDYRLQTDERCKVAIYAQGFSQASHGLSDTLLSVLPVRAEEISGSLYQHLKPGTAARALHEHALAS
In turn, B1 had a shortening of the donor fluorescence lifetime against PvdJ-eGFP alone of 10 to 15%.
